These results are taken from patent US7144731B2, “SCF antibody compositions and methods of using the same” (Amgen Inc., priority 1989, dated 2006).

Entries after “also recorded” stand apart in the source; their conditions may differ.

In one data set the test system is Balb/c mice. The data set is described as follows: 5-FU experimental thrombocytopenia. The data set is classed as in vivo, mouse. The procedure:
Balb/c mice were either untreated or treated intravenously with 5-fluorouracil (150 mg/kg) on Day 0 (n=5). Blood analyses were performed on the indicated days as in legend to FIG. 53. Error bars are present, but not discernable, in some of the control points. […] After Day 12, platelet counts appeared to cycle from normal to high levels throughout the 40 day testing period. […] Two Balb/c mice per group were sacrificed at the indicated days. Cells from bone marrow (Panel A) or spleen (Panel B) were aliquoted at 100,000/well of a microtiter plate and stained for acetylcholinesterase according to published procedures, Long et al., Immature megakaryocytes in the mouse: Morphology and quantitation by acetlycholinesterase staining. Blood 58: 1032, 1981. Data points are the percentage of ACH+ cells per well for individual animals.
Platelet volumes also increase after 5-FU (FIG. 57). The data in this figure were generated from the same blood samples collected in FIG. 55. Mean Platelet Volume (MPV) is one of the parameters analyzed by the Sysmex Cell Analyzer.
The possibility of a relationship between SCF and the physiological regulator of platelet production induced in the 5-FU thrombocytopenic model was explored. 5-FU was given to normal mice and SCF mRNA expression levels quantitated in bone marrow cells collected on the days indicated in FIG. 58. In FIG. 58, one million cells were lysed in SDS buffer and the lysate was analyzed for the presence of mRNA specific for murine SCF. […] RNA sense strand standards for quantitation of the hybridization assays were produced by runoff transcription of the same region in the direction opposite to the direction of probe synthesis using tracer quantities of ^35S-UTP and 0.2 mM unlabeled UTP.
SCF or actin mRNA levels were quantitated as follows. […] After addition of 5 mls Liquiscint (New England Nuclear; Boston, Mass.) samples were counted 20 minutes or to 3% error. […]

Data set [1] addresses T1, SCF receptor (OCIM1 plasma membrane) (Homo sapiens, UniProt P10721).
T1 construct: endogenous in cells; host or cells: OCIM1 human erythroleukemic cells, plasma membrane preparation
The data set is described as follows: SCF radioreceptor assay. The data set is classed as binding. The procedure:
OCIM1 cells, [Papayannopoulou et al., Blood 72:1029–1038 (1988)] are a human erythroleukemic cell line expressing many human SCF receptors per cell. These cells are grown in Iscove's Modified Dulbecco's Medium, 10% FBS, and 1× glutamine and passaged 3 times a week to 1×10^5 cells/ml.
Preparation of the OCIM1 plasma membrane is as follows with all steps performed on ice.
First, 40 T175 flasks of cells were grown-up in OCIM1 culture medium, for a total of 1.9×10^9 […]. The conditioned medium and 1 mM Phenyl Methyl Sulfonyl Fluoride (PMSF) protease inhibitor, was spun down in 8×250 ml tubes at 1000 rpm for 10 minutes at 4° C. Cells were washed with PBS and repelleted in 4×50 ml centrifuge tubes at 1000 rpm for 10 minutes at 4° C. Cells were resuspended in 20 ml ice cold PBS with glucose sodium pyruvate (Gibco Cat #310-4287). The 20 ml cell solution was put into a pre-pressurized, pre-chilled (4° C.) “cell bomb” designed to lyse the cells. Cells were pressurized at 400–650 PSI for 10 minutes to establish equilibrium. When the pressure is released cell lysis occurs.
At this point the cells were checked for the percentage of cell lysis. 90% lysis was common. The cell suspension was resuspended in 80 mls sucrose buffer (0.25M sucrose, 10 mM Tris, 1 mM EDTA in double distilled (dd) H2O, filtered through a 0.45 u filter, pH 7.0) and divided between two 40 ml screwcap tubes. Tubes were spun at 5900 RPM for 10 minutes in a Beckman J2-21 centrifuge, JA-20 rotor at 4° C. The supernatants were saved and spun one more time as above to further remove any unwanted material. Supernatants were saved and distributed equally into 2 nalgene 40 ml centrifuge tubes. These supernatants were centrifuged at 16,000 RPM 4° C. for 30 min. in J2-21 centrifuge, JA-20 rotor. These supernatants were discarded being careful to save pellets. Each pellet was resuspended in sucrose buffer so there were 20 mls per tube in 4×36 ml plastic ultracentrifuge tubes. Using a 20 ml syringe and a large trochar, the solution was carefully underlayered in each tube with ice cold 36% sucrose solution (36.1 g sucrose/100 mls ddH2O), bringing the level of the liquid to within 2 mm of the top of the tube. Without disturbing the interface, each tube was carefully placed into each of […] titanium ultracentrifuge tubes. Tubes were centrifuged at 27,000 RPM, 4° C. for 75 minutes in an ultracentrifuge. These tubes were carefully removed from the rotor and from titanium buckets, placed in a rack with the 36% sucrose interface visible. The membraneous material at the interface was collected with a pasteur pipet and transfered into 2 clean nalgene 40 ml centrifuge tubes. Volume was brought up to 40 mls with ice cold sucrose buffer. Tubes were balanced and centrifuged as before at 5900 RPM in J2-21 centrifuge. […]

In another data set the test system is UT-7 cells. Description: UT-7 ^3H-thymidine uptake assay. The data set is classed as cell-based, human. The procedure: UT-7 cells are a human megakaryocyte, huGM-CSF responsive cell line obtained from John Adamson, New York Blood Center, New York, N.Y. UT-7 cells were cultured in Iscove's Modified Dulbecco's Medium, 10% FBS, 1× glutamine, 5 \g/ml huGM-CSF. Cells are passaged twice a week at 1×10^5 cells/ml.
Cells were washed twice in phosphate buffered saline (PBS) and resuspended in RPMI medium with 4% FBS and glutamine penicillin streptomycin (GPS) (Irvine Scientific Cat No. 9316 used at 1% volume per volume) at 4×10^4 cells/ml before use. Human SCF along with specific samples were added to 4000 cells/well in 96 well plates and were cultured for 72 hrs. 0.5 uCi/well of ^3H-Thymidine was then added to each plate, plates were harvested and counted 4 hours later.

Take `O=c1[nH]cc(F)c(=O)[nH]1` [5-FU, 5-fluorouracil]: in the data set on Balb/c mice (150 mg/kg i.v.), the “megakaryocyte numbers (ACH+ cells) in bone marrow and spleen” value is recorded as “rise dramatically”; the platelet volumes result is reported as “increase”. Moreover, the “platelet counts, time course” value in the data set with Balb/c mice (150 mg/kg i.v. on Day 0) is given as “thrombocytopenic by Day 5; also recorded: rebound thrombocytosis”.

“SCF^11-164: E. coli human SCF analog, amino acids 11 to 164”: the “specific activity in the radioreceptor assay” value in data set [1] was “negligible specific activity”. In the data set with UT-7 cells, the “specific activity in the UT-7 assay” value is recorded as “negligible specific activity”.

B1: SCF^1-130: E. coli human SCF analog, amino acids 1 to 130 (protein)
chain: EGICRNRVTNNVKDVTKLVANLPKDYMITLKYVPGMDVLPSHCWISEMVVQLSDSLTDLLDKFSNISEGLSNYSIIDKLVNIVDDLVECVKENSSKDLKKSFKSPEPRLFTPEEFFRIFNRSIDAFKDFV
As to B1, the “specific activity in the radioreceptor assay” value in data set [1] is “about 50 % of the value for SCF^1-164”. Also, the “specific activity in the UT-7 assay” value with UT-7 cells is reported as “about 15 % of the value for SCF^1-164”.
